Molecular target: human IGF2R extra-cellular domains 1-15 fused at the C-terminal to rat CD4 (domains 3 + 4), biotin acceptor … (human, UniProt P11717 41-2304, biotin on the BirA acceptor tag)
Assay: SPR

| Kd [nM] | Binder |
| --- | --- |
| 52.3 | bovine β-glucuronidase (290 KD) (enzyme, mannose 6-phosphate (M6P-beta-glucuronidase)) LQGGMLYPRESRSRERKELDGLWSFRADFSDNRRQGFEQQWYRAPLRESGPTLDMPVPSSFNDVGQDGQLRSFVGWVWYEREITLPQRWTEDLGTRVVLRIGSAHYYAIVWVNGVHVLEHEGGHLPFEADISKLVQSGPLSSCRITIAINNTLSPHTLPPGTILYKTDPSMYPKGYFVQNTKFDFFNYAGLHRSVLLYTTPTTYIDDITVTTDMDQDIGLVNYQIIVQGSDHFQVDVSLLDEEGKVMAKGAGAEGQLQVPSAHLWWPYLMHEHPAYLYSLEVKLTAQTAVGPVSDFYTLPVGIRTVAVTKSQFLINGKPFYFRGVNKHEDADIRGKGFDWPLLVKDFNLLRWLGANAFRTSHYPYSEEVLQLCDRYGIVVIDESPGVGIVLVESFSNVSLQHHLEVMEEMIRRDKNHPAVVMWSLANEPASFLKPAGYYFKTLIAHTKALDPSRPVTFVTNTNYEADLGAPYVDIICVNSYYSWYHDYGHMEVIQLQLATQFENWYKAYQKPMIQSEYGADAIEGFHEDPPLMFSEEYQKGLLQQYHVVLDQKRKEYVVGELIWNFADFMTNQSPVRMIGNRKGIFTRQRQPKSAAFLLRERYWKLANETRYQRSAVTSQCVGSGLFTV |
| 43.5 | human glu-plasminogen (88 KD) (natural protein) EPLDDYVNTQGASLFSVTKKQLGAGSIEECAAKCEEDEEFTCRAFQYHSKEQQCVIMAENRKSSIIIRMRDVVLFEKKVYLSECKTGNGKNYRGTMSKTKNGITCQKWSSTSPHRPRFSPATHPSEGLEENYCRNPDNDPQGPWCYTTDPEKRYDYCDILECEEECMHCSGENYDGKISKTMSGLECQAWDSQSPHAHGYIPSKFPNKNLKKNYCRNPDRELRPWCFTTDPNKRWELCDIPRCTTPPPSSGPTYQCLKGTGENYRGNVAVTVSGHTCQHWSAQTPHTHNRTPENFPCKNLDENYCRNPDGKRAPWCHTTNSQVRWEYCKIPSCDSSPVSTEQLAPTAPPELTPVVQDCYHGDGQSYRGTSSTTTTGKKCQSWSSMTPHRHQKTPENYPNAGLTMNYCRNPDADKGPWCFTTDPSVRWEYCNLKKCSGTEASVVAPPPVVLLPDVETPSEEDCMFGNGKGYRGKRATTVTGTPCQDWAAQEPHRHSIFTPETNPRAGLEKNYCRNPDGDVGGPWCYTTNPRKLYDYCDVPQCAAPSFDCGKPQVEPKKCPGRVVGGCVAHPHSWPWQVSLRTRFGMHFCGGTLISPEWVLTAAHCLEKSPRPSSYKVILGAHQEVNLEPHVQEIEVSRLFLEPTRKDIALLKLSSPAVITDKVIPACLPSPNYVVADRTECFITGWGETQGTFGAGLLKEAQLPVIENKVCNRYEFLNGRVQSTELCAGHLAGGTDSCQGDSGGPLVCFEKDKYILQGVTSWGLGCARPNKPGVYVRVSRFVTWIEGVMRNN |

— article PMC6684648 (2019)
